In the DeepSol protein solubility set:

assay: soluble on expression in E. coli; label from the status in PepcDB or PDB records

Sequence | soluble on expression in E. coli
MGSDKIHHHHHHLGKFSHIAIAFIDVVMESDHAGLELIRWIREELHNKTIRLILRTGQPGQAPEEDVIVNYDINDYKAKSELDSRKLMTSVYSALRSYRDIMEIEQARRAQLSHRMGLERVLEATAGLFELRTLHKFADGLLTQVATLLNLDNETLLLSCNAMDAISGHVDCAGIEILAGTGQFANSSAKTILPERIDKLLRSALAQKRCLYEDNYFVGYFPTKSGLINLLYMDGINKIDDLDKKLIDIFAINVGIAFENLLLNQEVEDTQSELILRLGDVVESRSKEAANHVKRMAEYCAQLALLAGLNEYDADLLRRASPMHDIGKIAIPDAVLLKPGKLNDDEWQIMRQHPNIGHQILANSERPILKAASIIALQHHEKYDGSGYPSNLKQDEIHIFARIVAIADVFDALSHTRCWLFLPIPQKCKISDRLAQKHTVNWSLYRRIP | not soluble
MGHHHHHHSHQETQLSSKVVQKLVLPFGRLNYLPLEQQFMPCLERILAREAGVAPLATVNILMSLCQLRCLPFRALHFVFSPGFINYISGTPHALIVRRYLSLLDTAVELELPGYRGPRLPRRQQVPIFPQPLITDRARCKYSHKDIVAEGLRQLLGEEKYRQDLTVPPGYCTDFLLCASSSGAVLPVRTQDPFLP | not soluble
MTNPVDVNLINGIALAFEGDAVYSYYVRRHLIFQGKTKPSQLHRLATRYVSAKAQANLIQAMLEAQLLTEKEEDIYKRGRNTNSHTKAKNADIITYRMSTGFEAIMGYLDMMGQKERLEELIRWCIEYVEKQQLISSLEHHHHHH | soluble
MSLGNSFRQGANAYFDYVNTQGGIYGRALELLTYDDKYEPKLTESNVRHLIDKEGVFALMGTIGTPTAMAAIPVALEEQIPFLMPLSGARFLREPFNRLIFNLRPSYFEEIEAISSYLTEERGFKRIAIFYQNDSFGIEGLEGLTQSLDKRGLKIVAEGIYPRNTLSVSDAVYAIHPKSPEAIVMVGTYEASALFIQRYKELNPASPPLFVNISFVAATALAEALQGNMRQVLVSNVTPSPWDISNPLVREYHRLYVESMGHPPCFLSFEGFLSAKIIVEALHKTGPILSHKRFIKAMENLSPDFLSDLKLRFSATNHQAFEQVFITGYENGRFVTLKSYEGHHHHHH | not soluble
SLIPIFIAKRENGEKIHLLDHHDEELLHHMRKRESFFCIACGKEVLMRLGKQKRWHFAHKKVDSCLAFYEAESTYHMYGKELLYRWFKRQNVHVEIEHYLPEIRQRPDIFIERAGKQIAIEYQCANLSIEQLCKRTYSYWRAGIQVIWIIGGNQLKKHSAYWMKFSSLMAFSLQSYPQPLLIFFCSKQKSFMKCTFITSFSTSVAFSHIIYLPIETTTFEMLFSPVPFQREVLNREWKRRKDYFRQNALPILNYNHKSLLRLLYQCKCNPANFPSEIGVPLPSSFAFQTNSFIWQAFLYMNCIGELAVGDCISLKYVCSYIKKYTKRRMLPYFSQH | not soluble
MGSDKIHHHHHHMLSLTEQLNRGPVVSDGAMATELEKRGVATNSALWSATAMLDHPDAIQAVHQSYLDAGAKIMTTNTYQANVPAFEQAGIAAVQARQLIQQAVTIAHTARDASHVTDAVIAGSIGPYGAYLADGSEYTGAYQLTPSAYQDFHRERLALIMAAGVDVLALETMPRLDEVQALVQLITTTWPQQPYWVSFSIKDPQTLCDGTSLAVAAKWVAAQPNVVAVGVNCTTLENIAPALTTLKAAVAVPLIVYPNSGDQYDPVTKTWQETHLSHQFASFVPQWLAAGARIIGGCCRTTPKDIATVARALSVSDSAKL | not soluble
MSARKLFYLGPQGTFTHQAAVNAAQELARFEPQGFDLMPMDDVPQILDAAQHGDGWGIVAWENNVEGYVVPNLDALIDAKDLVGFARVGVNVEFDAYVAQGADPAEARIATAHPHGLAQCKRFIAEHRLSTQPATSNAAACRDLIPGEIAFGPAICGELYDITRIGTAIQDYQGAATDFLVLSPRAE | not soluble
